Experimental data: patent US20230406909A1 (ROCHE DIAGNOSTICS OPERATIONS, published 2023)
Read-outs that look alike come from different tables or passages of the source.

Columns and labels:
[1] = biological target: T1, SlyD-SlyD-tagged nucleocapsid full-length protein (EcSlyD-EcSlyD-CoV-2-N(1-419)) (SARS-CoV-2)
[2] = biological target: T1, SlyD-SlyD-tagged nucleocapsid …; remark: listed apart in the source
[3] = biological target: T1, SlyD-SlyD-tagged nucleocapsid …; assay: SPR (Biacore), captured antibody, NCP analyte, Langmuir 1:1 fit

Row | Binder | Kd [1] [nM] | MR (molar ratio) [2] | koff [2] [s⁻¹] | kon [2] [M⁻¹ s⁻¹] | t1/2 diss [2] [min] | MR (molar ratio) [3] | koff [3] [s⁻¹] | kon [3] [M⁻¹ s⁻¹] | t1/2 diss [3] [min] | koff [1] [s⁻¹] | Kd [2] [nM] | Kd [3] [nM]
1 | Antibody 5B6 (antibody, V domains shown, also called clone 5B6) VH: SQSVEESGGRLVTPGTPLTLTCTASGFSLSSYYMSWVRQAPGKGLEWIGVMTAGGSTFYASWAKGRFTISKTSTTVDLKITSPTTEDTATYFCARSIDTNYGSSIWGPGTLVTVSL VL: DVVMTQTPASMSEPVGGTVTIKCQASEDIYTYLSWYQQQSGQPPKVLIYAASNLASGVSSRFKGSRSGTEYTLTISDLECADAATYYCQGDYYGSNYGLGTFGGGTEVVVK | 0.7 | 1.7 | 0.00012 | 180000 | 93 | 1.7 | 0.00012 | 180000 | 93 | – | – | –
2 | Antibody 1G9 (antibody, V domains shown, also called clone 1G9) VH: SQSVEESGGRLVTPGTPLTLTCTVSGFSLSTYAVNWVRQAPGKGLEWIGVIDGSGSTYYANWAKGRFTISKASTTVDLKITSPTTEDTATYFCARGAGTDNFGNLNLWGPGTLVTVSS VL: DVVMTQTPASVEVAVGGTVTIKCQASESISSWLAWYQQKPGQPPKLLIYRASTLASGVPSRFKGSGSGTEYTLTISGVECADAATYYCQQDYSTSNIDNTFGGGTEVVVK | 1.2 | 1.2 | 0.00024 | 200000 | 48 | 1.2 | 0.00024 | 200000 | 48 | – | – | –
3 | Antibody 1.1.32 (antibody, V domains shown, also called M-1.1.32; clone 1.1.32) VH: EVQLQQSGPELVKPGASVKMSCKASGYTFTTYVMHWVKQKPGQGLEWIGYSDPYNGDSKDNENFKGKATLTSDKSSSTVYMELSSLTSEDSAVYYCARGFGNYLFYFDYWGQGTTLTVSS VL: DIQMTQTTSSLSASLGDRVTISCSASQDIRDYLNWYQQKPDGTVKLLIYYTSNLHSGVPSRFSGSGSGTDYSLTISNLEPEDIATYFCQQYSKLPYTFGGGTKLEIK | 0.06 | 0.9 | – | 340000 | 579 | 0.9 | – | 340000 | 579 | 2e-05 | 0.059 | 0.059
